For one assay, the target named is T1, LRRK2 (Homo sapiens, UniProt Q5S007, G2019S).
T1 construct: GST-LRRK2 (residues 960-2527)
In words: in vitro kinase assay with recombinant LRRK2 and Rab10, inhibitor at […]. The class given is biochemical.

A further assay deals with Rabin8 (Rab3IP) 144-460 (UniProt Q96QF0). In words: Ni2+-NTA pull-down by His-Rabin8. Particulars: reference: non-phosphorylated Rab8a; sites T72.
Assay [1] addresses HIS-tagged Rabin8 (residues 144-460) (human) (UniProt Q96QF0).

Sequence of HIS-tagged Rabin8 (residues 144-460) (human) (Q96QF0 144-460): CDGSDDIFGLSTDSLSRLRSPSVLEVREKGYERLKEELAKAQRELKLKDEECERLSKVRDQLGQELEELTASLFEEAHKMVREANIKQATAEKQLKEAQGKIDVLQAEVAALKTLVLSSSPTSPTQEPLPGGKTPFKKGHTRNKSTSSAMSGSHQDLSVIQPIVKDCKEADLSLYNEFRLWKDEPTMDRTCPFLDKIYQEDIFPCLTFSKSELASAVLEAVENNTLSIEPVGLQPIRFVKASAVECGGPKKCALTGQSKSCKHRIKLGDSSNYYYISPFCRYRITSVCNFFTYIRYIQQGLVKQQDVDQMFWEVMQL
T1 sequence (Q5S007 960-2527 G2019S): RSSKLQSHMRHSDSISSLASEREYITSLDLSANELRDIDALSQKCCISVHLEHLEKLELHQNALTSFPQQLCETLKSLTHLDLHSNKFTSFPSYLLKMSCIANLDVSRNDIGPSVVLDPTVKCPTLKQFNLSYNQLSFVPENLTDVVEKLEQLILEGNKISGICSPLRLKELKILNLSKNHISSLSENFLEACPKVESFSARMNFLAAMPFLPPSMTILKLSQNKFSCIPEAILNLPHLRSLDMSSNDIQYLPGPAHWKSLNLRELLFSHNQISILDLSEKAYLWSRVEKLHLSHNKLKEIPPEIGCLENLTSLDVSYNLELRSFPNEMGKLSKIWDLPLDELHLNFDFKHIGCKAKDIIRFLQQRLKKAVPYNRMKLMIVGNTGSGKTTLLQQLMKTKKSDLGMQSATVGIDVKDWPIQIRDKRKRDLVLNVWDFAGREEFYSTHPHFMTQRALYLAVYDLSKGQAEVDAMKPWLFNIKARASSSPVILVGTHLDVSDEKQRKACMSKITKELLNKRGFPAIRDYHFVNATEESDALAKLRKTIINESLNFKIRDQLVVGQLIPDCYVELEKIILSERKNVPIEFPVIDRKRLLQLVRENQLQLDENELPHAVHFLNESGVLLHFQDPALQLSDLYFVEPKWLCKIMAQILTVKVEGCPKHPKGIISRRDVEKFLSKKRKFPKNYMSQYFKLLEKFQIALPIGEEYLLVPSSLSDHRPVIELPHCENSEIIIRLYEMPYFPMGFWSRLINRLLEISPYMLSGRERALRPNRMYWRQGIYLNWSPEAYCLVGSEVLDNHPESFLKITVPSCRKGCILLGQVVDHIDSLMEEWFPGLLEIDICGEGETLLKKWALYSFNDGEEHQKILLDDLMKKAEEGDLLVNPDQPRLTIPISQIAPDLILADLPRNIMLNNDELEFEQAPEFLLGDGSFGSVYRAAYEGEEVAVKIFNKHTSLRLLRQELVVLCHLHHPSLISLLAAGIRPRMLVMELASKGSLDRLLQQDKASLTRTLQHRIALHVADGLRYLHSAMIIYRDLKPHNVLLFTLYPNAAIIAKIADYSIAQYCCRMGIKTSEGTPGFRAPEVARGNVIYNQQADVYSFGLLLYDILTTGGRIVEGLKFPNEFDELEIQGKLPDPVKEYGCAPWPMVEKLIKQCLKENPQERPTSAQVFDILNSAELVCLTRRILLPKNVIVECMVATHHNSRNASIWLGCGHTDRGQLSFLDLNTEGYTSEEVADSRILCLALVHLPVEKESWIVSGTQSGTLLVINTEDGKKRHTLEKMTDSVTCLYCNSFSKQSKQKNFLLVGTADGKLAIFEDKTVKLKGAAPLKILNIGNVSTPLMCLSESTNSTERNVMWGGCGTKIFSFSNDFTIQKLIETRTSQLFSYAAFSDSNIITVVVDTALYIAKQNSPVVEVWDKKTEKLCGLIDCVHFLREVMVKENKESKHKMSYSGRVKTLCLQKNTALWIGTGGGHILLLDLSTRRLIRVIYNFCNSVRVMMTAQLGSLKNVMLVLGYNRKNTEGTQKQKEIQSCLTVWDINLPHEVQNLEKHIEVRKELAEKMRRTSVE

For the molecule `O=C(Nc1cccnc1)c1cc(-c2ccnc(F)c2)ccc1OCc1ccccc1` [GSK2578215A], at LRRK2, the “in vitro kinase assay with recombinant LRRK2 and Rab10, inhibitor at 2 μM” value is recorded as “Inhibition of LRRK2-G2019S by GSK2578215A or HG-10-102-01 prevents phosphorylation”. On to “Rab8a 1-183 (from UniProt P61006) LRRK2-G2019S-phosphorylated, ion-exchange-enriched pT72-Rab8a”, for which the “binding against the reference” value with Rabin8 (Rab3IP) 144-460 was “weaker”. For the molecule “Rab8a (1-183) quantitatively phosphorylated pT72 (from UniProt P61006 1-183) (domain or fragment)”, the rate of Rabin8-catalyzed mant-GDP exchange (GEF assay with Rabin8 144-245, 2 μM), T72-phosphorylated against non-phosphorylated Rab8a (1-183): inhibition in assay [1] was 4 fold.

Values taken from publication PMC4769169 (eLife, 2016).
